The term IC50 denotes the concentration that gives 50% inhibition. Lower therefore signals greater potency.

The source of these data is patent publication EP0769025B1.

In experiment [1] the target is monoclonal antibody AF-28. The experiment in a line: competition ELISA, 32-mer as both coating (25 pmoles/ml, Figure 6b) and standard antigen. (In general: In an ELISA, binding on a coated surface is turned into a signal by an enzyme label.)
For experiment [2], the target named is monoclonal antibody AF-28. The experiment in a line: competition ELISA, competitor against plate-coated 32-mer for AF-28.

Regarding FFGVGGEEDITVQTVTWPDMELPLPRNITEGE [… (FFGVG...EGE 32-mer) synthetic peptide], the IC50 in experiment [1] stood at 16 nM.
For the molecule FGVGGEEDI [… 9-mer], in experiment [2], the times less competitive than the 32-mer was determined as 230 times.
